Experimental data from patent US20260200990A1, “MODIFIED LONG PEPTIDES SUITABLE FOR USE IN IMMUNISATION” (ISABELLA PHARMA B.V., priority 2022, published 2026).
Ends that are not written are not given here.

Key:
[1] = Stability of cysteine and cystine-containing peptides in 20% v/v DMSO in WFI (UPLC-UV-MS purity); type: physicochemical; conditions: room temperature
Protocol: To examine the effect on stability of a peptide that contains cysteine(s) (non-oxidized, C) or cystine(s) (oxidized, C (C)) in a formulation matrix (20% v/v DMSO in WFI (water for injection), four non-oxidized (SEQ ID NO: 1, 2, 3 and 4) and their oxidized, cystine-containing, peptides were manufactured and individually examined in 20% v/v DMSO (aq.)
Each peptide (2.0 mg) was dissolved in 2.0 ml of 0.09% TFA in H2O: acetonitrile (1:1, v/v). Aliquots of 200 μL were transferred to a 1 mL amber vial and then freeze dried overnight. An aliquot (0.2 mg) was then redissolved in 20% v/v DMSO in WFI (1 mL). After swirling for 2 minutes, a sample was analyzed by UPLC-UV-MS. The remainder of the sample was stored at room temperature and analyzed at different time intervals (1 h, 2 h, 3 h, 4 h). The identity and purity of the purified peptides were then determined by UPLC-UV-MS on a Waters Acquity UPLC/TQD system using an C18 Waters Acquity BEH130 analytical column (1.7 μm particle size, 2.1×150 mm, flow 0.4 mL/min) with a linear gradient (5% B to 95% B, linear gradient in 10 min). The absorbance was measured at 220 nm.
MassLynx v4.1 was used to integrate the individual peaks of the chromatogram in the region of the observed peptide-derived signals. The following ApexTrack peak detection parameters were used for integration: peak-to-peak baseline noise was set at automatic, peak width at 5% height was set at automatic, baseline start threshold of 0.05% and baseline end threshold of 0.05%. The detect shoulder function was turned on. The following response thresholds were set: relative height of 0.20 and relative area of 0.10. After the peak of the desired peptide was identified by MS, the corresponding integral of the peak in the UV chromatogram is reported in Table 2 as percentage of the total integrated peaks, purity (% a/a).
Purity of the non-oxidized and oxidized peptide composition over time was evaluated over 4 h. Additional mass adducts, consistent with the formation of intermolecular or intramolecular disulfide bonds, increased over time in all spectra of cysteine-containing peptides compared to cystine-containing peptides. The purity of the non-oxidized peptides set forth in SEQ ID NO: 1, 3 and 4 declined from >90% a/a at to less than 80% a/a with the lowest stability observed for SEQ ID NO: 1 with a purity of 64% a/a after 4 h. For the cystine-containing peptide analogs, the purity remained >90% a/a after 4 h.

[2] = Stability of peptide mixtures under long term and accelerated storage (UPLC); type: physicochemical; conditions: peptide in mixture of 6 peptides
Protocol: To examine the effect on stability of peptides that contain cystine (oxidized, C (C)) present in a mixture of 6 peptides, two examples of mixtures of both non-cysteine-containing (NCC1-6) and cystine-containing (SEQ ID NO: 1-6) peptides were assessed. Typical chromatograms of the two mixtures are depicted in FIG. 2. Both mixtures were placed on two different storage conditions, ‘long term storage condition’ (i.e. −20±5° C.) and ‘accelerated storage condition’ (i.e. 5±3° C.).
The purity, the level of impurities, and the quantification per peptide of both mixtures are determined by reversed phase rapid UPLC using a mobile phase gradient of ACN/IPA and water with TFA, and UV detection at λ=220 nm. The method quantifies main peaks and impurities in mixtures of peptides. The reporting threshold for the method is 0.10% a/a.
Both mixtures of six peptides were stored under the two conditions described and by using the analytical method as described. The stability was monitored. The quantity of each of the peptides present in the mix (assay values), the purity, and the individual impurities were measured at several timepoints over a period of 3 months. […] Furthermore, focussing on the individual impurities it is shown that no significant degradation has taken place as all levels remain constant and no new impurities have formed.

Sequence | Purity (% a/a) ([1]; Time 0 h) | Purity (% a/a) ([1]; Time 1 h) | Purity (% a/a) ([1]; Time 2 h) | Purity (% a/a) ([1]; Time 3 h) | Purity (% a/a) ([1]; Time 4 h) | Assay (net peptide content) (mg/vial) ([2]; Initial) | Assay (net peptide content) (mg/vial) ([2]; Storage at 5 ± 3° C., T1M) | Assay (net peptide content) (mg/vial) ([2]; Storage at 5 ± 3° C., T2M) | Assay (net peptide content) (mg/vial) ([2]; Storage at 5 ± 3° C., T3M) | Assay (net peptide content) (mg/vial) ([2]; Storage at −20 ± 5° C., T2M) | Assay (net peptide content) (mg/vial) ([2]; Storage at −20 ± 5° C., T3M)
HLSLRGLPVCAFSSAGPCALRFTSA [Cystine(C(C)) containing SEQ ID NO: 1] | 97.14 % a/a | 96.67 % a/a | 95.10 % a/a | 95.97 % a/a | 95.74 % a/a | 0.24 mg/vial | 0.23 mg/vial | 0.24 mg/vial | 0.23 mg/vial | 0.24 mg/vial | 0.24 mg/vial
VLSRKYTSFPWLLGCTANWILRGTSFVYVPSALNPA [Cystine(C(C)) containing SEQ ID NO: 3] (VLSRKYTSFPWLLGC(Cys)TANWILRGTSFVYVPSALNPA) [HBV Pol fragment SLP with cysteinylated cysteine] | 97.44 % a/a | 97.48 % a/a | 97.28 % a/a | 97.30 % a/a | 97.34 % a/a | 0.24 mg/vial | 0.23 mg/vial | 0.24 mg/vial | 0.25 mg/vial | 0.24 mg/vial | 0.25 mg/vial
